Reference: article PMC10216065

Target: T1, E. coli SufE (E. coli), P76194
T1 chain: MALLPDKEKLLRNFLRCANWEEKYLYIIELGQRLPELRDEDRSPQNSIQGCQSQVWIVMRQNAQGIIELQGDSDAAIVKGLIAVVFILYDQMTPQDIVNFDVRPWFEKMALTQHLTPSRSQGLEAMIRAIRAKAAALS
Assay: cross-linking; disulfide-linked species after treatment with 1 mM H2O2; SDS-PAGE under reducing (+DTT) and non-reducing (-DTT) conditions
Details: remark: other sources report otherwise

B1: E. coli SufE, P76194 1-138 (natural protein)
chain: T1 chain
For B1, the percent of total SufE as disulfide-bonded homodimer was 34%.
